Biological target: human EGFR on A431 and MCF-7 cells (human), P00533
Test: cell-based or functional assay

- IC50 of inhibition of EGFR autophosphorylation in A431 cells: 2000 nM
- Normalized Percent of EGFR autophosphorylation inhibition: 99.4%
Binder: CHPGDKQEDPNCLQADK (modifications not checked) [E13.3]

From US20240002547A1, “T[…]-TARGETING CONSTRUCTS AND USES THEREOF” (AEBI LTD., priority 2016, published 2024)
